assay: label from the status in PepcDB records

Sequence | protein production
MDRVMRDDLHIMPPPAPLAMQAQDFSAGFRDALAPPDSPQRDVAPWRVLAFSPAMAATLALVWLMGDWFSDSGISVLEAVLLALISFNFFWIAFAASTVLLGMLSLSRQPARARAGRAEPLKVALLMPVYNEVPWYVLGNARTMLEELKARGGQHQYAMFILSDTRDDAIAAQEQASVEALRTTLAPDLALYYRRRVENTDRKVGNIADWVAGWGGAWDAMLVLDADSLMTGRAIARLTDALARDPGAGLIQSFPQLIGAQSVFARMQQFANGVYGAAFAEGMARWCGQEGNYWGHNAIIRTAAFANCAGLPKLRSLSGREKLIMSHDFVEAGLLRRAGWSVRFLPRIRGSYEETPPTLIDHVLRDRRWCQGNLQHLNLLNARGFRSVSRFHMFHGAIGYLMSPIWFALLVMWALIGHGQDGSVLQYFSPDNPLFPQWPEMTEGRHVLIIVVMYAMLLLPKLLGVLALPLSGAHYSDFGGAGRFLLSFLSEVVLSILYAPILMVQQMIAVFRTFLGIQKGWSPQARDGGTYGLGTLVKCHMLETLSGLALGTGIALGLVSVWLAPIALSLALAVPLSALSGVSAGTARRLIGMREEFREPAITRSARAYRNELKTLLERGSRIHPAE | failed
MDRWNMHKPMLCDSLPTASRTAAAILNLAQREDVTAEALAQLIQTDPALTGRILRFANAPAQGTRRPVASVIDAIDLVGLPAVRQFALSLSLIDAHREGRCEAFDYAAYWQKSLARAVALQSITAQASTVAPKEAFTLGLLADVGRLALATAWPEEYSECLRKADGEALIALERERFATDHDELTRMLLTDWGFPQVFIDALQLSQQDEIRDEGRTGRFARQLALAQHIADHRLAEEPRRAALSPLLRAEARRCGLGDEDLARLLADPPADWLDWTRTIGLEHHHHHH | not failed
MDSGCWLFGGEFEDSVFEERPERRSGPPASYCAKLCEPQWFYEETESSDDVEVLTLKKFKGDLAYRRQEYQKALQEYSSISEKLSSTNFAMKRDVQEGQARCLAHLGRHMEALEIAANLENKATNTDHLTTVLYLQLAICSSLQNLEKTIFCLQKLISLHPFNPWNWGKLAEAYLNLGPALSAALASSQKQHSFTSSDKTIKSFFPHSGKDCLLCFPETLPESSLFSVEANSSNSQKNEKALTNIQNCMAEKRETVLIETQLKACASFIRTRLLLQFTQPQQTSFALERNLRTQQEIEDKMKGFSFKEDTLLLIAEVMGEDIPEKIKDEVHPEVKCVGSVALTALVTVSSEEFEDKWFRKIKDHFCPFENQFHTEIQILA | failed
MDSGQIILNLVIIVITFFVAAFFVACEFALVQTRPSALEEEQKKRDKPSKRIATSLHMVRNLNEYLSTTQVGVSLAGIILGWIGEQTTEHFVLDFLSLFNLSVSTAVLRGISIVIGVFLLTYLEVVLTEIVPKNIAIDMPLKVMAVITTPLRWFHVMFYPFVWLLNVSSAGVVKMLGIPVANEDNDVYSQAEILNLSRNAVTGGELERNDYLYMERAFEFNDKIAKDIMIDRTQLVVIDINDTVKQAIRVYLQKRFSRLPVVANNDKDKILGYVYNYDLIRQGEVDDDIRVNKLLRNIITIPETTPIQAILQKMIDKQTPIVVVVDEYGGTSGIVTDKDIYEELFGTVNDEIDNVSNEYIEKQADGTYRISGKMTIYDFERYFKTDLQEFEDSDVVTLTGYILDNFPKIQAGDTIQIGNFNFKALDFENAYINWFEVSAQRDSTPDDHNDDQTQD | failed
MDSMDHRIERLEYYIQLLVKTVDMDRYPFYALLIDKGLSKEEGEAVMRICDELSEELATQKAQGFVTFDKLLALFAGQLNEKLDVHETIFALYEQGLYQELMEVFIDIMKHFD | not failed
MDSSNYFYGGNNICIINTKWGKHSGIGGYAEIIDTLVGNFTNISSWAKIGIRDHIHTNFLICDFVYKDNDHIMPPGISSFEDYWVKIGNDVWVGTNVTILRGVEVGDGAVIAAGSVVTKSIPPYAIVGGNPAKFIKWRFPFEVREKLLEIKLEHHHHHH | failed
MDTFNYQNFYNQEYYLNMVPGIPYDREAHGGHWLRFFNTVADRLINYVSPTSVLDVGCAKGFLLEAFYNRGILVHGFDYSEYAISCVREDLKPFAFVASAANSNAFLEKQDSYDLITCIEVVEHMPRDEAWLAIKNMCQSAKSIFFSSTSDDFAEPTHLTVLPRIYWLETFLSFGFVPDYKFDIHDLIPHGILLRKIDDNLTAFKMLIEVNETNLEVIKQQKIDIEKLNSEKVNLENKLQQTQTELERSHSQLQQTQTELERSHSQLQQTQTELERSHSQLQQTQTELERSHSQLQQTQTELERSHSQLHQTQTELERSQSQLQQTQTELERSQSQLQQIQMALTLPQSQLYQMQTELEHWKNLVDWMEGSRFWKLRALCLSLKKKIINFPIIKLDFGSLPVFRKNNYPIFVKRTGKLIKNQIMSFRTQNDFADEILAGVLQSFAESPEYSQWIKDYEAKNDELKEQRINAASFPYQPVLSIILPVYKLPLTVLQETINSVIQQTYSNWELCIAFADIDNYQTIDYLKTLSLQEKRIKLKVMAENKGISGNSNVSLNMASGEFVALLDHDDLLAPFAFYEVISELNKQPDLDFIYSDKDCISANSMVRSRLLLKPEWSPEILYSANYLTHLCIARRTLLEKIGGFRPETDGAQDWDLFLRITENTSRIARINSVLYHWRIIQGSTSLGIDSKPYALEGQLRSIQDHLTRTKLPATVSPHPESGFRLEWQASSAEVSIYIDGDVSWDSLSACIHAVSEFADPKLHKATIVLAEHTYTSKATERENLITAVNLPIDWLPIKEGDSKLATLANTIKQDKTDVVVFVSGLVKKFTEGWIQELSGWVLNHPDIGFVSSLVLTDNNLVVEAGLVVDQYNNGSPLMRGNFLYSWDIFGGALWYRNCSASSPWSIAFSYKNYLEGGGLPSNSPSLSHSMIKLCQAIRVNNKRGLVNPHARAFLQDLPKNDIPEFDDSLGNDPYFHPAFSSVVPLKLRVKNGKKN | failed
MDTIRSIFIIWKDDRMSFLNNSIIYHIAIILYACSISLYFIDYFQSNRKANRFAFWLLSIVWVLHSIFMLLRATDSETNPLLTLLSGIYFYVWLLITMSLVINRFMRIDFLVFFTNVVAFGVSAFSIFTPLGKMSPVLAEQLVSELVYVHVGMAIISYATFTVSFIFSIMYLLQYRLLKKKKWNARLRRLGNLPKLESMSYGLNLFSVPFFLLAILLGCIWGYTKLDNFHWYDTKVIGSFVVLFVYCAGLYLRAADVLQGKKIVQWNIGAFLVMLINIFLLSSLSNFHFWYL | failed
MDTKHFLPLDFSTQVNSSLTSPTGRGSMAAPSLHPSLGPGIGSPGQLHSPISTLSSPINGMGPPFSVISSPMGPHSMSVPTTPTLGFSTGSPQLSSPMNPVSSSEDIKPPLGLNGVLKVPAHPSGNMASFTKHICAICGDRSSGKHYGVYSCEGCKGFFKRTVRKDLTYTCRDNKDCLIDKRQRNRCQYCRYQKCLAMGMKREAVQEERQRGKDRNENEVESTSSANEDMPVERILEAELAVEPKTETYVEANMGLNPSSPNDPVTNICQAADKQLFTLVEWAKRIPHFSELPLDDQVILLRAGWNELLIASFSHRSIAVKDGILLATGLHVHRNSAHSAGVGAIFDRVLTELVSKMRDMQMDKTELGCLRAIVLFNPDSKGLSNPAEVEALREKVYASLEAYCKHKYPEQPGRFAKLLLRLPALRSIGLKCLEHLFFFKLIGDTPIDTFLMEMLEAPHQMT | failed
MDTQTVAAYDTLAETFAREWREQPAPDDLYALLRRMFKAGGDTVDIGCGAGREVAWLNANGYPAVGYDASAGLLEAARTQYPGLSFRRAMLPELVGIAEGAFDNVVCETVIMHLPPAQIGAAVRRLLALLRPGGTLYLSWRVTPEADQRDGRGRLYTAFDAAGVREALAGAQVLFDEVAVSQSSGLEHHHHHH | not failed
MDTTAVLLKGPKDLDVDTLQLHVPGDGDLVVEIEHSGISTGTEKLFWSGEMPPFPGMGYPLVPGYEAVGEVVEADRATGFKVGERVFVPGANCYDGAFGLFGGAASRVVTASDRVTRIDAGHGASGALLALAATARHSMAGLNKSVPDLIVGHGVLGRLLARLTIAAGAPAPMVWEIDESRRKGAQGYEVIAPEDDPRRDYTSVYDASGSVEVLNDLVGRLAKGGEIVLAGFYTTAISFAFPPAFMKEARFRVAAEWTHDDLAATRALVEGGSLSLENLITHQASHLNARAAYAQAFTDPDCLKMILNWKDVA | failed
